Assay [1] has as its target HIV-1 integrase fused to mVenus (IN-mVenus), transincorporated into virions as Vpr-IN-mVenus (HIV-1). The experiment in a line: FRET or BRET.
Assay [2] shares this target. The assay can be described thus: FRET or BRET. The source holds these as a separate data set.
For assay [3], the target named is glutathione S-transferase (GST) tagged HIV-1 IN (HIV-1). The experiment in a line: AlphaScreen or HTRF. A general note: Bead proximity is the source of the signal in Alpha formats.

Read-outs that look alike come from different tables or passages of the source.

This note sets out measurements from paper PMC4004294.

With “HIV-1 integrase fused to mTFP1 (IN-mTFP1), transincorporated into virions as Vpr-IN-mTFP1 (enzyme)”, the figures for the FRET ratio (r FRET) in assay [1] and in assay [2] were 1.27 and 1.3, respectively.
As to “HIV-1 IN point mutant IN(W108G)-His6 (enzyme)”, in assay [3], the fold lower AlphaScreen signal than wild-type IN was found to be 4 fold.
